According to IntAct's records for PubMed 16263329:

B1: Anti-sigma-F factor antagonist RsfB (Mycobacterium tuberculosis (strain ATCC 25618 / P9WGE1 (parent)
chain: MSAPDSITVTVADHNGVAVLSIGGEIDLITAAALEEAIGEVVADNPTALVIDLSAVEFLGSVGLKILAATSEKIGQSVKFGVVARGSVTRRPIHLMGLDKTFRLFSTLHDALTGVRGGRIDR
partner: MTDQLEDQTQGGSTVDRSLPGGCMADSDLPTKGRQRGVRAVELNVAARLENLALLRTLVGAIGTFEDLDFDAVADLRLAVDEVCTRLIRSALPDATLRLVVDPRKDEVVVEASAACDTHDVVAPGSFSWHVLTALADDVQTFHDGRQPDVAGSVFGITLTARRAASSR

Variants of: B1
Settings: with rsbw_myctu rsbW

| Variant | effect of a mutation on the interaction |
| --- | --- |
| MSAPDSITVTVADHNGVAVLSIGGEIDLITAAALEEAIGEVVADNPTALVIDLSAVEFLGAVGLKILAATSEKIGQSVKFGVVARGSVTRRPIHLMGLDKTFRLFSTLHDALTGVRGGRIDR | decreasing interaction |
